Two molecules from patent publication US12115223B2, “Conjugate of biotin-modified dimer and phthalocyanine dye” (THE UNIVERSITY OF TOKYO, priority 2021, dated 2024) can be followed below.

In test [1] the target is T1, Recombinant Human CEACAM-5/CD66e Protein (Homo sapiens, UniProt P06731).
T1 construct: purchased R & D SYSTEMS
T1 sequence (P06731 35-676): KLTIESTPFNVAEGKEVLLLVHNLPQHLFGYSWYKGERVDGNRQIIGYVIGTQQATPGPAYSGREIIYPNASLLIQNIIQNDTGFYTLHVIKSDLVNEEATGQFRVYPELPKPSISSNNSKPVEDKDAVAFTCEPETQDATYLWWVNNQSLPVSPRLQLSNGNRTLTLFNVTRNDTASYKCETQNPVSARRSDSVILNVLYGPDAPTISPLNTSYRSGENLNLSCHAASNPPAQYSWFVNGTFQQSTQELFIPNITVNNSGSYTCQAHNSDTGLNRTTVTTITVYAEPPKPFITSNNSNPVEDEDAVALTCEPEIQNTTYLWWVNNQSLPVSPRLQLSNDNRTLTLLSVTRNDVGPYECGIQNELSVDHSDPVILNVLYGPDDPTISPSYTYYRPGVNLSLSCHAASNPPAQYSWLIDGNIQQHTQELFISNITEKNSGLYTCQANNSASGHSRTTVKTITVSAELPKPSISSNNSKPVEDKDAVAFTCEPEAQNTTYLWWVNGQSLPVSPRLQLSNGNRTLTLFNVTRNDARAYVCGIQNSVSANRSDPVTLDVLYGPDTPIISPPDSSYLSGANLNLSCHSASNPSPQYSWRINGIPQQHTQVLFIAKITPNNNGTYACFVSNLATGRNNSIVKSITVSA
Briefly: SPR (Biacore T200) affinity of CEA-V2122 for the antigen CEACAM5. Type of test: binding. The conditions noted are these: bivalent analysis. As for the experimental part:
The affinity of CEA-V2122 for the antigen CEACAM5 was evaluated using a surface plasmon resonance (SPR) measuring device, Biacore T200 (GE Healthcare Life Sciences). Specifically, Recombinant Human CEACAM-5/CD66e Protein, CF (R & D SYSTEMS) was immobilized on Sensor Chip CMS (GE Healthcare Life Sciences) using an amine-coupling kit (GE Healthcare Life Sciences). The fmal amount of the ligand immobilized was 279 RU. Moreover, with regard to the purified CEA-V2122, two-fold serial dilutions from 1E-08 M to 6.25E-10 M were prepared as analytes. Regarding interaction analysis, data were obtained by single-cycle kinetics analysis. Using Biacore T200 Evaluation Software, version 2.0, the obtained data were subjected to curve fitting in a bivalent analysis mode, and the following values were obtained: ka1=3.208E+5, and kd1=3.461E-7.
Background: SPR reads the build-up and loss of mass on a sensor chip optically.

Test [2] concerns CEACAM5-positive MKN-45 cells and CEACAM5-negative DLD1 cells. The test can be described thus: Cell staining of CEACAM5-expressing cell line using FITC-labeled CEA-V2122. It is filed as cell-based, human. Conditions: 20 nM CEA-V2122-FITC. As for the experimental part: In order to stain a CEACAM5 expression-positive cancer cell line, FITC labeling was carried out on the cell line, using 100 μg of a purified CEA-V2122 protein. Specifically, labeling was carried out using Fluorescein Labeling Kit-NH2 (DOJINDO LABORATORIES) in accordance with the dosage and administration described in the operating manual included with the kit, and the obtained product was defined to be CEA-V2122-FITC. Specific staining of the CEACAM5 expression-positive cancer cell line is as follows. That is, CEACAM5-positive human stomach cancer-derived MKN-45 cells and CEACAM5-negative human colon cancer-derived DLD1 cells were each seeded on a CELLSTAR, μClear, 96-well plate (Greiner) to a cell density of 2.0×10^4 cells/well, and thereafter, the cells were cultured overnight. Subsequently, a culture solution containing 20 nM CEA-V2122-FITC and 1 μM Hoechist was added to the 96-well plate to a concentration of 100 μL/well, and the obtained mixture was then reacted at 4° C. for 30 minutes. Thereafter, each image was taken using In Cell Analyzer 6000 (GE Healthcare Life Sciences).

B1: CEA-V2122: scFv-type anti-CEACAM5 antibody bound with mutant streptavidin V2122 via an amino acid linker (SEQ ID NO: 3) (protein)
chain: QVKLEQSGAEVVKPGASVKLSCKASGFNIKDSYMHWLRQGPGQRLEWIGWIDPENGDTEYAPKFQGKATFTTDTSANTAYLGLSSLRPEDTAVYYCNEGTPTGPYYFDYWGQGTLVTVSSGGGGSGGGGSGGGGSENVLTQSPSSMSVSVGDRVNIACSASSSVPYMHWLQQKPGKSPKLLIYLTSNLASGVPSRFSGSGSGTDYSLTISSVQPEDAATYYCQQRSSYPLTFGGGTKLEIKGGGGSGGGGAEAGITGTWSDQLGDTFIVTAGADGALTGTYENAVGGAESRYVLTGRYDSAPATDGSGTALGWTVAWKNNSKNAHSATTWSGQYVGGADAKINTQWLLTSGTTNANAWKSTLVGHDTFTKVKPSAASHHHHHH
With B1, in test [1], the “KD=kd1/ka1” value was found to be 1.078E-12.

B2: CEA-V2122-FITC: purified CEA-V2122 protein labeled using Fluorescein Labeling Kit-NH2 (conjugate)
chain: QVKLEQSGAEVVKPGASVKLSCKASGFNIKDSYMHWLRQGPGQRLEWIGWIDPENGDTEYAPKFQGKATFTTDTSANTAYLGLSSLRPEDTAVYYCNEGTPTGPYYFDYWGQGTLVTVSSGGGGSGGGGSGGGGSENVLTQSPSSMSVSVGDRVNIACSASSSVPYMHWLQQKPGKSPKLLIYLTSNLASGVPSRFSGSGSGTDYSLTISSVQPEDAATYYCQQRSSYPLTFGGGTKLEIKGGGGSGGGGAEAGITGTWSDQLGDTFIVTAGADGALTGTYENAVGGAESRYVLTGRYDSAPATDGSGTALGWTVAWKNNSKNAHSATTWSGQYVGGADAKINTQWLLTSGTTNANAWKSTLVGHDTFTKVKPSAASHHHHHH
As for B2, the “localisation of CEACAM5 after binding (time-series images of MKN45 cells, FIG. 6)” value in test [2] was “the CEACAM5 stays on the surface of the cell membrane”. Moreover, the “recognition of CEACAM5 on cells (stained cell images, FIG. 5)” value in test [2] (4° C., 30 minutes) is “specifically recognizes CEACAM5 on the surface of the cell membrane”.
